Patent publication US20040161798A1 (University of Texas, published 2004)
No end group written: not given here.

What was measured:
[1] = target: T1, GST-Mdm2 (human, UniProt Q00987 1-188); experiment: protein retained on TentaGel beads with scrambled peptide, SDS-PAGE/Western blot
T1 construct: range 1-188; also called GST fused human Mdm2

[2] = target: T2, GST-KIX (mouse, UniProt P45481 378-817); experiment: dilution assay on TentaGel beads, Western blot
T2 construct: range 378-817; also called GSTCBP(378-817); GST fusion of CBP(378-817)
T2 sequence (P45481 378-817): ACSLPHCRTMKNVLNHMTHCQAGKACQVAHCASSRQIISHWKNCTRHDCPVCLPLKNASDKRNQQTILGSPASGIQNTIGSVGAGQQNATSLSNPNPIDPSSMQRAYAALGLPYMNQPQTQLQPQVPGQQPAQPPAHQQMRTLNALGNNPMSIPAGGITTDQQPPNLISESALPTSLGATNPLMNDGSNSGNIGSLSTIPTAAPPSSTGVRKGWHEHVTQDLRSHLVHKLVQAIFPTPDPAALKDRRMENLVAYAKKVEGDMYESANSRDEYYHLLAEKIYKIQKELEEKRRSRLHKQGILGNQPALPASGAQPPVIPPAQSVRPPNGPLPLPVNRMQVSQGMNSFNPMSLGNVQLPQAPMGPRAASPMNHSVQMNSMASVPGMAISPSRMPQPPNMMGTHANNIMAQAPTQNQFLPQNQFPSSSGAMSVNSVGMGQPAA

[3] = target: T2, GST-KIX; experiment: fluorescence polarization titration in solution; paragraph 167 gives this value for His6-KIX and GST-KIX
Excerpt: (§1) Determination of solution binding constants.
(§2) Complex half life of immobilized peptides and dimeric proteins. Peptide libraries are rich sources of protein-binding molecules and there exist many straightforward methods to screen such libraries. […] To test the surface-mediated avidity concept, a collection of peptides known to bind different proteins were assembled, some homodimers and some monomers.

[4] = target: T3, His6-KIX (mouse, UniProt P45481 378-817); experiment: as above
T3 construct: range 378-817; Monomer; also called CBP(378-817) from pRSET-CBP(378-817); not shown: N-terminal His6 tag of vector pRSET-A
T3 sequence (P45481 378-817): as above
Excerpt: as §1, §2

[5] = target: T2, GST-KIX; experiment: fluorescence polarization after adding excess unlabeled peptide
Excerpt: (§3) Fluorescence anisotropy measurements were taken every 30 seconds.
as §2

[6] = target: T3, His6-KIX; experiment: as above
Excerpt: as §3, §2

[7] = target: T4, ubiquitin (Homo sapiens (Human), UniProt P0CG47 1-76, The screen used fluorescently labelled ubiquitin. The ITC and pull-down assays used unlabelled (native) ubiquitin.); experiment: isothermal titration calorimetry in solution
T4 construct: Unlabeled in ITC and in the pull-down assays; also called native ubiquitin

[8] = target: T4, ubiquitin; experiment: isothermal titration calorimetry in solution, against NH2-RWDRYYF
[9] = target: maltose-binding protein (UniProt P0AEX9 27-392 = MBP); experiment: fluorescence polarization titration in solution
[10] = target: T5, His6Gal80 (UniProt P04387 1-435); experiment: protein retained on TentaGel beads with scrambled peptide, SDS-PAGE/Western blot
T5 construct: also called Gal80 protein; Gal 80 protein; not shown: N-terminal His6 tag from vector pProEX-1
T5 sequence (looked up): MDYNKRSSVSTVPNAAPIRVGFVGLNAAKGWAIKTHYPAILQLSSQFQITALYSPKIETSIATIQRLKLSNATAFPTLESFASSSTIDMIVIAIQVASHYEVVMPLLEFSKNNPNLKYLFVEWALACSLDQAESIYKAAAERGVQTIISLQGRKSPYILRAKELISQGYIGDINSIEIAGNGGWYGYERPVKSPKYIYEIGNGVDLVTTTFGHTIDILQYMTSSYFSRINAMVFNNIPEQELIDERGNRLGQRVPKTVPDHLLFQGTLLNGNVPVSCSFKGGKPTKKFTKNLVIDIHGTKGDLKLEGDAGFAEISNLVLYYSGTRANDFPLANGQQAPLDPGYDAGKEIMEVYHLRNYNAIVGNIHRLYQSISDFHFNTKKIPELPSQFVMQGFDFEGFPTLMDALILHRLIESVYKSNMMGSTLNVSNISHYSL

[11] = target: T2, GST-KIX; experiment: as above

T1 sequence (Q00987 1-188): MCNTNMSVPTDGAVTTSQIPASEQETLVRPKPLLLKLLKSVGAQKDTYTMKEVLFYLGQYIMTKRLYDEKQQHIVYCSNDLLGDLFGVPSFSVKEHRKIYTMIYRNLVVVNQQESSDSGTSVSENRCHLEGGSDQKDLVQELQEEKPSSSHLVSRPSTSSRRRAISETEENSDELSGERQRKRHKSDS

NVKWLDPNQELPSFLTSLE (attached to TentaGel resin in the bead assays, Scrambled control of Mdm2bp) [Mdm2bpscram]
binding result [1]: no binding (tested: 300 nM)

B1: KIXbp1 (peptide)
peptide: SVPGSVSWFEFWSAVDAVET
modifications: not fully specified (N-terminus); also: N-terminal carboxyfluorescein only in solution titrations, attached to TentaGel resin in bead assays
notes: Phage display 20-mer
half-life of the immobilized complex [2]: > 2 h
Kd [3]: 8 µM
Kd [4]: 8 µM
half-life of the complex in solution [5]: < 10 s
half-life of the complex in solution [6]: < 10 s

B2: NH2-RWDRYYF (peptide)
peptide: H-RWDRYYF
notes: Hit of a seven residue peptide library; also called ubiquitin lead peptide; lead peptide
Kd [7]: 33 µM

H-WGLRALESRWDRYYF (Hit of the library NH2-X7-S-RWDRYYF) [NH2-WGLRALESRWDRYYF]
fold better in solution than the lead peptide [8]: ~3 fold
Kd [7]: 12 µM

B3: Mdm2bp (peptide)
peptide: PLSQETFSDLWKLLPENNV
modifications: not fully specified (N-terminus, C-terminus); also: N-terminal carboxyfluorescein only in solution titrations, attached to TentaGel resin in bead assays
notes: also called p53 derived peptide; p53-derived peptide
binding result [9]: no binding

B4: Gal80bpscram (peptide)
peptide: DLQRDTNKGFHEMFDWDYQN
modifications: attached to TentaGel resin in the bead assays
notes: Scrambled control of Gal80bp; also called Ga180bpscram; scrambled version of Gal80 bp
binding result [10]: no binding (tested: 300 nM)

FSASFTEVVDAGWVSPWSVE (attached to TentaGel resin in the bead assays, Scrambled control of KIXbp1) [KIXbp1scram]
binding result [11]: no binding (tested: 300 nM)
